Consider 1 sequence from patent US20030148973A1, “MAGE-A1 peptides for treating or preventing cancer” (priority 2001, published 2003).

The target of the assay is T1, HLA-A0201 molecules on T2 cells (Homo sapiens, UniProt P04439, D140Y/D185E/D98H/E176V/E277Q/G131W/G231S/I119V/I121R/I166T/I218V/L300P/L318F/N151K/N90K/P208A/P217A/Q86G/Q94H/R138H/R169H/T345S).
T1 construct: endogenous in cells; host or cells: T2 cell line (from Dr. Peter Creswell, Yale University)
In words: Binding and stabilization of surface HLA-A0201 on T2 cells (BB7.2 antibody, flow cytometry). The conditions noted are these: 20 μg peptide pulsed onto 10^6 denatured T2 cells, 4 hours at 26° C.; BB7.2 binding detected with FITC conjugate. As for the experimental part: The ability of the MAGE-A1 derived peptides to be presented in the context of HLA-A2 was determined by the ability of such peptides stabilize membrane-bound HLA-A0201 molecules The T2 cell line (Dr. Peter Creswell, Yale University) has been well documented to have a defective TAP (e.g. Transporter for Antigen Processing) transporter function. As a result, the majority of intracellularly generated peptides are not transported into the endoplasmic reticulum and thus are unable to associate with newly synthesized HLA class 1 MHC molecules (e.g. HLA-A0201; Salter, R D and Creswell, P. (1986) EMBO J 5:943). […] The stability of the surface HLA-A0201 molecules can be restored upon interaction with suitable exogenous peptides. […]
In order to determine whether the identified nonapeptides can be presented by HLA-A0201, T2 cells were propagated in RPMI complete medium (RPMI medium supplemented with 10% heat-inactivated bovine serum, 120.0 units per ml of penicillin G sodium, 120 μg per ml of streptomycin sulphate, and 0.35 mg per ml of L-glutamine). The ability of MAGE-A1 derived peptides to bind and stabilize surface HLA-A0201 molecules on T2 cells was determined utilizing a standard protocol (Deng, Y. (1997) J Immunol 158:1507-1515). […] The binding of BB7.2 was detected via the addition of 1.0 μg per test of goat anti-mouse IgG-Fc fluorescein (FITC) conjugate (BETHYL Laboratories Inc). […]

Regarding “CLGLSYDGL (listed as Homo sapiens) [MAGE-A1 174]”, the “Fluorescence Index (FI)” value is on record as 1.73.
